Measured values taken from US20210355194A1 (TWIST BIOSCIENCE, published 2021).
Numbering of substitutions follows the chain as printed.

B1: variant 6-57 (Fc fusion)
VHH: EVQLVESGGGLVQPGGSLRLSCAASGLTFDDHSMGWFRQAPGKEREFVAAVPLSGNTYYADSVKGRFTISADNSKNTAYLQMNSLKPEDTAVYYCASFSGGPADFDYWGQGTLVTVSS
B2: variant 6-51 (Fc fusion)
VHH: EVQLVESGGGLVQPGGSLRLSCAASGYTYSSYVMGWFRQAPGKEREFVAAISRFGSTYYADSVKGRFTISADNSKNTAYLQMNSLKPEDTAVYYCARDSGEHFWDSGYIDHWGQGTLVTVSS
B3: variant 6-46 (Fc fusion)
VHH: EVQLVESGGGLVQPGGSLRLSCAASGLTFSAMGWFRQAPGKEREFVALIRRDGSTIYADSVKGRFTISADNSKNTAYLQMNSLKPEDTAVYYCAALGILFGYDAFDIWGQGTLVTVSS
B4: variant 6-56 (Fc fusion)
VHH: EVQLVESGGGLVQPGGSLRLSCAASGNIFRSNMGWFRQAPGKEREFVAGITWNGDTTYYADSVKGRFTISADNSKNTAYLQMNSLKPEDTAVYYCARALGVTYQFDYWGQGTLVTVSS
B5: variant 6-52 (Fc fusion)
VHH: EVQLVESGGGLVQPGGSLRLSCAASGDTYGSYWMGWFRQAPGKEREVVAAITSGGSTVYADSVKGRFTISADNSKNTAYLQMNSLKPEDTAVYYCARVDSRFDYWGQGTLVTVSS
B6: variant 6-55 (Fc fusion)
VHH: B5 VHH with D27F, Y29M, G30S, Y32S, V47F, A50R, V58G, R97S, S100G, R101Y
notes: VHH-Fc
B7: variant 6-45 (Fc fusion)
VHH: EVQLVESGGGLVQPGGSLRLSCAASGNMFSINAMGWFRQAPGKEREFVTLISWSSGRTSYADSVKGRFTISADNSKNTAYLQMNSLKPEDTAVYYCASLGYCSGGSCFDYWGQGTLVTVSS
B8: variant 6-37 (Fc fusion)
VHH: EVQLVESGGGLVQPGGSLRLSCAASGHTFSTSWMGWFRQAPGKEREFVATINSLGGTNYADSVKGRFTISADNSKNTAYLQMNSLKPEDTAVYYCARVSSGDYGMDVWGQGTLVTVSS
B9: variant 6-62 (Fc fusion)
VHH: EVQLVESGGGLVQPGGSLRLSCAASGSTFSGNWMGWFRQAPGKEREFVAVISWTGGSTYYADSVKGRFTISADNSKNTAYLQMNSLKPEDTAVYYCATHNSLSGFDYWGQGTLVTVSS
B10: variant 6-41 (Fc fusion)
VHH: EVQLVESGGGLVQPGGSLRLSCAASGFTFSTSWMGWFRQAPGKEREFVASINEYGGRNYADSVKGRFTISADNSKNTAYLQMNSLKPEDTAVYYCAGLHYYYDSSGYNPTEYYGMDVWGQGTLVTVSS
B11: variant 6-54 (Fc fusion)
VHH: EVQLVESGGGLVQPGGSLRLSCAASGFEFENHWMGWFRQAPGKEREYVAHITAGGLSNYADSVKGRFTISADNSKNTAYLQMNSLKPEDTAVYYCGRHWGIYDSSGFSSFDYWGQGTLVTVSS
B12: variant 6-53 (Fc fusion)
VHH: EVQLVESGGGLVQPGGSLRLSCAASGISINTNVMGWFRQAPGKEREFVAAISTGSVTIYADSVKGRFTISADNSKNTAYLQMNSLKPEDTAVYYCARVDDFGYFDLWGQGTLVTVSS
B13: variant 6-26 (Fc fusion)
VHH: EVQLVESGGGLVQPGGSLRLSCAASGDTFSTSWMGWFRQAPGKEREFVATINTGGGTNYADSVKGRFTISADNSKNTAYLQMNSLKPEDTAVYYCARVTTSFDYWGQGTLVTVSS
notes: VHH-Fc
B14: variant 6-30 (Fc fusion)
VHH: EVQLVESGGGLVQPGGSLRLSCAASGFAFGDSWMGWFRQAPGKEREFVATINWSGVTAYADSVKGRFTISADNSKNTAYLQMNSLKPEDTAVYYCARADGYFDYWGQGTLVTVSS
B15: variant 6-77 (Fc fusion)
VHH: EVQLVESGGGLVQPGGSLRLSCAASGFTFDRSWMGWFRQAPGKEREFVAAVTEGGTTSYADSVKGRFTISADNSKNTAYLQMNSLKPEDTAVYYCARADYDFDYWGQGTLVTVSS
B16: variant 6-60 (Fc fusion)
VHH: EVQLVESGGGLVQPGGSLRLSCAASGDTYGSYWMGWFRQAPGKEREFVATISQSGAATAYADSVKGRFTISADNSKNTAYLQMNSLKPEDTAVYYCAGLLRYSGTYYDAFDVWGQGTLVTVSS
notes: VHH-Fc
B17: variant 6-32 (Fc fusion)
VHH: EVQLVESGGGLVQPGGSLRLSCAASGFTLDYYDMGWFRQAPGKEREFVALISWSGGSTYYADSVKGRFTISADNSKNTAYLQMNSLKPEDTAVYYCATDFYGWGTRERDAFDIWGQGTLVTVSS
B18: variant 6-40 (Fc fusion)
VHH: EVQLVESGGGLVQPGGSLRLSCAASGFTFSDYWMGWFRQAPGKERELVARVWWNGGSAYYADSVKGRFTISADNSKNTAYLQMNSLKPEDTAVYYCAREVLRQQVVLDYWGQGTLVTVSS
B19: variant 6-44 (Fc fusion)
VHH: EVQLVESGGGLVQPGGSLRLSCAASGGTFGVYHMGWFRQAPGKEREFIGRITWTDGSTYYADSVKGRFTISADNSKNTAYLQMNSLKPEDTAVYYCFGLLEVYDMTFDYWGQGTLVTVSS
B20: variant 6-38 (Fc fusion)
VHH: EVQLVESGGGLVQPGGSLRLSCAASGNTFSGGFMGWFRQAPGKEREFVAVISSLSSKSYADSVKGRFTISADNSKNTAYLQMNSLKPEDTAVYYCAKVDSGYDYWGQGTLVTVSS
B21: variant 6-43 (Fc fusion)
VHH: EVQLVESGGGLVQPGGSLRLSCAASGRTFSSYAMMGWFRQAPGKEREFVASVNWDASQINYADSVKGRFTISADNSKNTAYLQMNSLKPEDTAVYYCTTLGAVYFDSSGYHDYFDYWGQGTLVTVSS
B22: variant 6-24 (Fc fusion)
VHH: EVQLVESGGGLVQPGGSLRLSCAASGFTLDYYAMGWFRQAPGKEREFVAAINWSGDNTHYADSVKGRFTISADNSKNTAYLQMNSLKPEDTAVYYCARAPFYCTTTKCQDNYYYMDVWGQGTLVTVSS
B23: variant 6-36 (Fc fusion)
VHH: EVQLVESGGGLVQPGGSLRLSCAASGFDFSVSWMGWFRQAPGKEREFVTAITWSGDSTNYADSVKGRFTISADNSKNTAYLQMNSLKPEDTAVYYCASLLHTGPSGGNYFDYWGQGTLVTVSS
B24: variant 6-39 (Fc fusion)
VHH: EVQLVESGGGLVQPGGSLRLSCAASGFTFSPSWMGWFRQAPGKEREFVAAISWSGGSTAYADSVKGRFTISADNSKNTAYLQMNSLKPEDTAVYYCHGLGEGDPYGDYEGYFDLWGQGTLVTVSS
B25: variant 6-50 (Fc fusion)
VHH: EVQLVESGGGLVQPGGSLRLSCAASGFSFDRWAMGWFRQAPGKEREWVASLATGGNTNYADSVKGRFTISADNSKNTAYLQMNSLKPEDTAVYYCARVTNYDAFDIWGQGTLVTVSS
B26: variant 6-25 (Fc fusion)
VHH: EVQLVESGGGLVQPGGSLRLSCAASGLTFGTYTMGWFRQAPGKEREFVAAISRFGSTYYADSVKGRFTISADNSKNTAYLQMNSLKPEDTAVYYCARGGDYDFWSVDYMDVWGQGTLVTVSS
B27: variant 6-49 (Fc fusion)
VHH: EVQLVESGGGLVQPGGSLRLSCAASGSTVLINAMGWFRQAPGKEREFVAAISWSPGRTDYADSVKGRFTISADNSKNTAYLQMNSLKPEDTAVYYCARDCSGGSCYSGDYWGQGTLVTVSS
B28: variant 6-58 (Fc fusion)
VHH: EVQLVESGGGLVQPGGSLRLSCAASGRAVSTYAMGWFRQAPGKEREFVAAISGSENVTSYADSVKGRFTISADNSKNTAYLQMNSLKPEDTAVYYCLSVTGDTEDYGVFDTWGQGTLVTVSS
B29: variant 6-34 (Fc fusion)
VHH: EVQLVESGGGLVQPGGSLRLSCAASGSAFRSNAMGWFRQAPGKEREFVAHISWSSKSTYYADSVKGRFTISADNSKNTAYLQMNSLKPEDTAVYYCATYCSSTSCFDYWGQGTLVTVSS
B30: variant 6-33 (Fc fusion)
VHH: EVQLVESGGGLVQPGGSLRLSCAASGTFQRINHMGWFRQAPGKEREFVATINTGGQPNYADSVKGRFTISADNSKNTAYLQMNSLKPEDTAVYYCASLIAAQDYYFDYWGQGTLVTVSS
B31: variant 6-47 (Fc fusion)
VHH: EVQLVESGGGLVQPGGSLRLSCAASGRTFSMHAMGWFRQAPGKERELVASITYGGNINYADSVKGRFTISADNSKNTAYLQMNSLKPEDTAVYYCAKEGYYDSTGYRTYFQQWGQGTLVTVSS
B32: variant 6-66 (Fc fusion)
VHH: EVQLVESGGGLVQPGGSLRLSCAASGLTFSLFAMGWFRQAPGKERELVAAISSGGSTDYADSVKGRFTISADNSKNTAYLQMNSLKPEDTAVYYCARGNTKYYYDSSGYSSAFDYWGQGTLVTVSS
B33: variant 6-28 (Fc fusion)
VHH: EVQLVESGGGLVQPGGSLRLSCAASGDTYGSYWMGWFRQAPGKEREFVATITSDDRTNYADSVKGRFTISADNSKNTAYLQMNSLKPEDTAVYYCARVTSSLSGMDVWGQGTLVTVSS
B34: variant 6-42 (Fc fusion)
VHH: EVQLVESGGGLVQPGGSLRLSCAASGDTYGSYWMGWFRQAPGKEREFVAVITSGGSTNYADSVKGRFTISADNSKNTAYLQMNSLKPEDTAVYYCTHVQNSYYYAMDVWGQGTLVTVSS
B35: variant 6-31 (Fc fusion)
VHH: EVQLVESGGGLVQPGGSLRLSCAASGDTFSANRMGWFRQAPGKEREFVASITWSSANTYYADSVKGRFTISADNSKNTAYLQMNSLKPEDTAVYYCATFNWNDEGFDFWGQGTLVTVSS

Biological target: CV S-protein construct 6 trimer TP31001F (SARS-CoV-2, UniProt P0DTC2 14-1208)
Assay: SPR

Q: How did the Kd turn out when B1 was run?
A: 700 pM

Q: Which Kd does the source give for B2 here?
A: 800 pM

Q: For B3, which Kd is on record?
A: 1900 pM

Q: How did the Kd turn out when B4 was run?
A: 14900 pM

Q: For B5, which Kd is on record?
A: 1100 pM

Q: Which Kd does the source give for B6 here?
A: 300 pM

Q: Which Kd does the source give for B7 here?
A: 1300 pM

Q: For B8, which Kd is on record?
A: 700 pM

Q: With B9 as the binder, how does the Kd read?
A: 198000 pM

Q: With B10 as the binder, how does the Kd read?
A: 1000 pM

Q: Which Kd does the source give for B11 here?
A: 900 pM

Q: B12 was tested. Which Kd did it give?
A: 24200 pM

Q: How did the Kd turn out when B13 was run?
A: 100 pM

Q: How did the Kd turn out when B14 was run?
A: 100 pM

Q: How did the Kd turn out when B15 was run?
A: 3500 pM

Q: How did the Kd turn out when B16 was run?
A: 100 pM

Q: B17 was tested. Which Kd did it give?
A: 100 pM

Q: B18 was tested. Which Kd did it give?
A: 1900 pM

Q: How did the Kd turn out when B19 was run?
A: 900 pM

Q: With B20 as the binder, how does the Kd read?
A: 500 pM

Q: For B21, which Kd is on record?
A: 700 pM

Q: How did the Kd turn out when B22 was run?
A: 200 pM

Q: For B23, which Kd is on record?
A: 800 pM

Q: Which Kd does the source give for B24 here?
A: 100 pM

Q: How did the Kd turn out when B25 was run?
A: 67600 pM

Q: How did the Kd turn out when B26 was run?
A: 5800 pM

Q: With B27 as the binder, how does the Kd read?
A: 2200 pM

Q: Which Kd does the source give for B28 here?
A: 1000 pM

Q: How did the Kd turn out when B29 was run?
A: 700 pM

Q: How did the Kd turn out when B30 was run?
A: 200 pM

Q: B31 was tested. Which Kd did it give?
A: 5600 pM

Q: B32 was tested. Which Kd did it give?
A: 7700 pM

Q: For B33, which Kd is on record?
A: 400 pM

Q: How did the Kd turn out when B34 was run?
A: 7800 pM

Q: Which Kd does the source give for B35 here?
A: 20700 pM
